Molecular target: human APJ receptor (hAPJ) (human) (UniProt P35414)
Assay: cell-based or functional assay

Sequence of human APJ receptor (hAPJ) (human) (P35414 whole entry): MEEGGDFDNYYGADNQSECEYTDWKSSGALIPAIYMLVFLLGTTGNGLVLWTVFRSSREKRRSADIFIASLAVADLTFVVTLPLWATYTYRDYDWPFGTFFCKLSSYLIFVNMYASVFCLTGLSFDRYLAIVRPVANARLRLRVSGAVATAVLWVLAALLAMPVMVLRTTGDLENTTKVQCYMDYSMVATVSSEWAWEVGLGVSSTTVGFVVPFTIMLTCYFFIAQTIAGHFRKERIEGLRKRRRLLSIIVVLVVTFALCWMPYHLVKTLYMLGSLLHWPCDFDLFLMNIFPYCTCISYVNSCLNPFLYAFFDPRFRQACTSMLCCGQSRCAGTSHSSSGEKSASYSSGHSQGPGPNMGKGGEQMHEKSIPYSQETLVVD

hAPJ Ca^2+ Flux EC50 | Substance
16.3 nM | Conjugate of AH-Fc with apelin cyclic peptide: AH-Fc-BCN clicked to NH2-AzidoLys-GGGGS-Q-R-P-C-L-S-C-K-G-P-Dnle-Phenethylamine (from UniProt P0DOX5 223-449) (Fc fusion)
28.9 nM | Fc-Apelin conjugate using sortase: Fc-GGGGS-LPET-GGGGG-QRPC*LSC*KGP(D-Nle)Phenethylamine (Fc fusion)

Source: patent publication US20160108091A1
